# Source: US20170106084A1
# T1: human tau(pS422) fragment SEQ ID NO: 03 (human)
# T1 sequence (peptide, phosphoserine at 422 (tau numbering); biotinylated): SIDMVDXPQLATLAD
# Molecular target: T1, human tau(pS422) fragment SEQ ID NO: 03 (human)
# Assay: ELISA, coated antigen
row,EC50 [ng/mL],Binder
1,5.6,"VH32/VL22 (antibody, V domains shown) VH: EVQVLESGGGLVQPGGSLRLSCAVSGFSLSSNAINWVRQAPGKGLEWVGYIAVSGNTYYASWAKGRFTISRDNSKNTVYLQMNSLRAEDTAVYYCGKSNIWGQGTLVTVSS VL: AQVMTQSPSSLSASVGDRVTITCRSSQSVRTNRLAWFQQKPGQPPKRLIYSASTLDYGVPSRFSGSGSGTEFTLTISSLQPEDFATYYCLGYFDSSADIVAFGGGTKVEIK"
2,6.3,"VH00/VL00 (antibody, V domains shown) VH: QSVEESGGRLVTPGTPLTLTCTVSGFSLSSNAINWVRQAPGKGLEWIGYIAVSGNTYYASWAKGRFTISKASTTVDLKMTSPTAEDTGTYFCGKSNIWGPGTLVTVSL VL: AQVLTQTTSPVSAAVGSTVTISCQSSQSVRTNKLAWFQQKPGQPPKRLIYSASTLDFGVPSRFSASGSGTQFTLTISDVQCDDAATYYCLGYFDCSIADCVAFGGGTEVVVK"
